# US20240247080A1, “GLP1/GIP/NPY2 RECEPTOR TRIPLE AGONISTS” (Boehringer Ingelheim International GmbH, priority 2022, published 2024)
# Positions count from the first letter of the chain named. Starred links: 1 amine or outer side, 2 acyl side, 3 side chain; linkers in the order of their positions; H or OH if unused. Non-standard residues stand in square brackets, D forms with d. Groups on a side chain read outwards from the residue. No end group written: not given here. *: point of attachment. C18 diacid = O=C(O)CCCCCCCCCCCCCCCCC(=O)*; γGlu = O=C(O)[C@H](CCC(=O)[*:2])N[*:1]; AEEA = NCCOCCOCC(=O)O; Aib = CC(C)(N)C(=O)O
# B1: Compound 249 (peptide)
# peptide: YXEGTFTSDYSIXLEKQAQXAFVQWLIKGGPSEGASLRHYYNWLTRQRY
# modifications: Aib at 2, 13, 20; K28 side chain carries C18DA-E-E-E-E-E-E-eLys (SEQ ID NO: 643); C-terminal amide
# B2: Compound 18 (peptide)
# peptide: B1 peptide with Q24E, E33S, Y41X, W43R, L44X
# modifications: Aib at 2, 13, 20, 41, 44; K28 side chain: C20DA-gGlu-gGlu-gGlu-gGlu-gGlu-gGlu-eLys; C-terminal NH2
# B3: Compound 20 (peptide)
# peptide: B1 peptide with E15A, K16A, Q17A, Q24E, E33S
# modifications: Aib at 2, 13, 20; K28 side chain: C20DA-gGlu-gGlu-gGlu-gGlu-gGlu-gGlu-eLys; C-terminal NH2
# B4: Compound 3 (peptide)
# peptide: B1 peptide with P31Q, S32R, E33S, G34Y
# modifications: Aib at 2, 13, 20; K28 side chain: C20DA-gGlu-gGlu-gGlu-gGlu-gGlu-gGlu-eLys; C-terminal NH2
# B5: Compound 19 (peptide)
# peptide: B1 peptide with E33Y, G34Y, A35V
# modifications: Aib at 2, 13, 20; K28 side chain: C20DA-gGlu-gGlu-gGlu-gGlu-gGlu-gGlu-eLys; C-terminal NH2
# B6: Compound 22 (peptide)
# peptide: B1 peptide with P31Q, E33S, G34Y
# modifications: Aib at 2, 13, 20; K28 side chain: C20DA-gGlu-gGlu-gGlu-gGlu-gGlu-Glu-eLys; C-terminal NH2
# B7: Compound 21 (peptide)
# peptide: B1 peptide with Q24E, E33S
# modifications: Aib at 2, 13, 20; DHis 39; DArg 46; DTyr 49; K28 side chain: C20DA-gGlu-gGlu-gGlu-gGlu-gGlu-gGlu-eLys; C-terminal NH2
# Biological target: GLP-1 receptor (human (printed as hGLP1R), UniProt P43220 24-463)
# Test: cell-based or functional assay
Binder,EC50 hGLP1R 0.5% hP (CreLuc) [nM],EC50 hGLP1R 100% hP (CreLuc) [nM]
B1,0.13,1.78
Y[Aib]EGTFTSDYSI[Aib]LEKQAQ[Aib]AFIEWLIK([γGlu-γGlu-γGlu-γGlu-C18 diacid])GGPSEGASLRHYYNWLTRQRY-NH2 (also: TFA salt) [Compound 247],0.11,2.2
Y[Aib]EGTFTSDYSI[Aib]LEKQAQ[Aib]AFVQWLIK([γGlu-γGlu-γGlu-γGlu-γGlu-γGlu-C18 diacid])GGPSEGASLRHYYNWLTRQRY-NH2 (also: TFA salt) [Compound 252],0.1,2.59
Y[Aib]EGTFTSDYSI[Aib]LEKQAQ[Aib]AFVEWLIK([AEEA-AEEA-γGlu-γGlu-γGlu-C18 diacid])GGPEEGASLRHYYNWLTRQRY-NH2 (also: TFA salt) [Compound 248],0.25,8

# Biological target: T1, NPY2 receptor (human (printed as hNPY2R), UniProt P49146 1-381)
# T1 sequence (looked up): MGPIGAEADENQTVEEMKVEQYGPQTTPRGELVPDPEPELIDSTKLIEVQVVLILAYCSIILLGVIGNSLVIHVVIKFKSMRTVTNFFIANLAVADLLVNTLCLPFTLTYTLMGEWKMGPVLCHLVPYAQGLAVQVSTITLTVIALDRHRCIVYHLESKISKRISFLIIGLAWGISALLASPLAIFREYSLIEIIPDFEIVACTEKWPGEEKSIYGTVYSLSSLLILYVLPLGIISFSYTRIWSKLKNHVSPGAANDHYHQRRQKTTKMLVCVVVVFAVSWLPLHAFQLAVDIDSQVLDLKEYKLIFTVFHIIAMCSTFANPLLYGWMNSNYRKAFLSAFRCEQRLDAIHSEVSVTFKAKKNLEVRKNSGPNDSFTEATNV
# Test: cell-based or functional assay
Binder,EC50 hNPY2R 0.5% hP (CreLuc) [nM],EC50 hNPY2R 100% hP (CreLuc) [nM]
B1,17.8,50
Y[Aib]EGTFTSDYSI[Aib]LEKQAQ[Aib]AFIEWLIK([γGlu-γGlu-γGlu-γGlu-C18 diacid])GGPSEGASLRHYYNWLTRQRY-NH2 (also: TFA salt) [Compound 247],11.9,64.7
Y[Aib]EGTFTSDYSI[Aib]LEKQAQ[Aib]AFVQWLIK([γGlu-γGlu-γGlu-γGlu-γGlu-γGlu-C18 diacid])GGPSEGASLRHYYNWLTRQRY-NH2 (also: TFA salt) [Compound 252],14.5,33.5
Y[Aib]EGTFTSDYSI[Aib]LEKQAQ[Aib]AFVEWLIK([AEEA-AEEA-γGlu-γGlu-γGlu-C18 diacid])GGPEEGASLRHYYNWLTRQRY-NH2 (also: TFA salt) [Compound 248],18.7,48.4

# Biological target: T2, human neuropeptide Y2 (NPY2) receptor (human, UniProt P49146 1-381)
# T2 sequence (looked up): T1 sequence (looked up)
# Test: cell-based or functional assay
Binder,"EC50, CreLuc assay, 0.5% hP [nM]","EC50, CreLuc assay, 100% hP [nM]"
B2,85.7,224
B3,19.1,62
B4,4.45,23
B5,9.41,19.3
B6,8.06,21.3
B7,> 99.9,> 999

# Biological target: T3, GIP receptor (human (printed as hGIPR), UniProt P48546 22-466)
# T3 sequence (looked up): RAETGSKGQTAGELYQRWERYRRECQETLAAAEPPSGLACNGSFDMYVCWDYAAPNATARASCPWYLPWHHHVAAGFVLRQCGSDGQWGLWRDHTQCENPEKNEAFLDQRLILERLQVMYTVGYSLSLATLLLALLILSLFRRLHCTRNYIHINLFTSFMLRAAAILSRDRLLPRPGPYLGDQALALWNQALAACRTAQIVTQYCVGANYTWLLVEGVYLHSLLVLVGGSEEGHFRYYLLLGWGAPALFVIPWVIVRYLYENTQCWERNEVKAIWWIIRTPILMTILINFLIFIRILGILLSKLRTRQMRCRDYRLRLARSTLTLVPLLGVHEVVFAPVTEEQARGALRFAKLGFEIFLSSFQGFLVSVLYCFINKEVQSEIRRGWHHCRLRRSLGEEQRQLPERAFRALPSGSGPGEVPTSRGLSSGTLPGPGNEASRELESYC
# Test: cell-based or functional assay
Binder,EC50 hGIPR 0.5% hP (CreLuc) [nM],EC50 hGIPR 100% hP (CreLuc) [nM]
B1,0.19,1.25
Y[Aib]EGTFTSDYSI[Aib]LEKQAQ[Aib]AFIEWLIK([γGlu-γGlu-γGlu-γGlu-C18 diacid])GGPSEGASLRHYYNWLTRQRY-NH2 (also: TFA salt) [Compound 247],0.26,1.57
Y[Aib]EGTFTSDYSI[Aib]LEKQAQ[Aib]AFVQWLIK([γGlu-γGlu-γGlu-γGlu-γGlu-γGlu-C18 diacid])GGPSEGASLRHYYNWLTRQRY-NH2 (also: TFA salt) [Compound 252],0.29,1.25
Y[Aib]EGTFTSDYSI[Aib]LEKQAQ[Aib]AFVEWLIK([AEEA-AEEA-γGlu-γGlu-γGlu-C18 diacid])GGPEEGASLRHYYNWLTRQRY-NH2 (also: TFA salt) [Compound 248],0.12,0.79

# Biological target: human GLP-1 receptor (human, UniProt P43220 24-463)
# Test: cell-based or functional assay
Binder,"EC50, CreLuc assay, 0.5% hP [nM]","EC50, CreLuc assay, 100% hP [nM]"
B2,0.12,1.94
B3,0.87,24.3
B4,0.45,14.4
B5,0.5,10.2
B6,0.45,15.9
B7,0.11,1.66

# Biological target: T4, human GIP receptor (human, UniProt P48546 22-466)
# T4 sequence (looked up): T3 sequence (looked up)
# Test: cell-based or functional assay
Binder,"EC50, CreLuc assay, 0.5% hP [nM]","EC50, CreLuc assay, 100% hP [nM]"
B2,0.36,1.98
B3,0.93,7.75
B4,0.53,6.56
B5,0.61,6.5
B6,0.54,6.62
B7,0.14,0.87
